Results reported in article PMC7588232, “Molecular mechanism for direct actin force-sensing by α-catenin” (eLife, 2020).

Molecular target: F-actin (filamentous actin), unlabeled, from chicken skeletal muscle (chicken, UniProt P68139 1-377)
Experiment: cryo-EM structure; 0.6 uM F-actin in KMEI applied to the grid, then 10 uM metavinculin ABD or 20 uM α-catenin ABD in KMEI, 25 °C; helical reconstruction (IHRSR, RELION 3.0)
Conditions: both partners purified

B1: H. sapiens metavinculin ABD (879-1134), not Halo-tagged (domain or fragment)
chain: EEKDEEFPEQKAGEVINQPMMMAARQLHDEARKWSSKPGIPAAEVGIGVVAEADAADAAGFPVPPDMEDDYEPELLLMPSNQPVNQPILAAAQSLHREATKWSSKGNDIIAAAKRMALLMAEMSRLVRGGSGTKRALIQCAKDIAKASDEVTRLAKEVAKQCTDKRIRTNLLQVCERIPTISTQLKILSTVKATMLGRTNISDEESEQATEMLVHNAQNLMQSVKETVREAEAASIKIRTDAGFTLRWVRKTPWYQ
notes: residues 981-1131 modelled in the map; Form used for cryo-EM; source: E. coli Rosetta2(DE3), purified (Ni-NTA, TEV cleavage, HiTrapQ, Superdex 200; no glycerol); not shown: His6, N-terminal, cleaved; Strep-tag, N-terminal, cleaved
  stoichiometry N: 1

B2: H. sapiens α-catenin ABD (αE-catenin 664-906), not Halo-tagged (domain or fragment)
chain: IAGQSARAIMAQLPQEQKAKIAEQVASFQEEKSKLDAEVSKWDDSGNDIIVLAKQMCMIMMEMTDFTRGKGPLKNTSDVISAAKKIAEAGSRMDKLGRTIADHCPDSACKQDLLAYLQRIALYCHQLNICSKVKAEVQNLGGELVVSGVDSAMSLIQAAKNLMNAVVQTVKASYVASTKYQKSQGMASLNLPAVSWKMKAPEKKPLVKREKQDETQTKIKRASQKKHVNPVQALSEFKAMDSI
notes: residues 699-871 modelled in the map; Form used for cryo-EM; source: E. coli Rosetta2(DE3), purified (Ni-NTA, TEV cleavage, HiTrapQ, Superdex 200; no glycerol); not shown: His6, N-terminal, cleaved; Strep-tag, N-terminal, cleaved
  stoichiometry N: 1
